# Literature values as cited in patent publication US20060110594A1, “Polymer-coated substrates for binding biomolecules and methods of making and using thereof” (priority 2004, published 2006).
# Conditions: isoelectric point, listed property
molecule,measurement,value
"Myoglobin: protein immobilized on EMA, 17.6 kDa (protein, UniProt P68082 2-154, looked up, immobilized on EMA, protein immobilized on EMA, 17.6 kDa) Myoglobin: GLSDGEWQQVLNVWGKVEADIAGHGQEVLIRLFTGHPETLEKFDKFKHLKTEAEMKASEDLKKHGTVVLTALGGILKKKGHHEAELKPLAQSHATKHKIPIKYLEFISDAIIHVLHSKHPGDFGADAQGAMTKALELFRNDIAAKYKELGFQG",pI,7.2
